Test results from patent publication US20230038638A1, “COMPLEMENT FACTOR I-RELATED COMPOSITIONS AND METHODS” (published 2023).

Columns and labels:
[1] = biological target: T1, human C4b (human) (UniProt P0C0L4)
T1 sequence: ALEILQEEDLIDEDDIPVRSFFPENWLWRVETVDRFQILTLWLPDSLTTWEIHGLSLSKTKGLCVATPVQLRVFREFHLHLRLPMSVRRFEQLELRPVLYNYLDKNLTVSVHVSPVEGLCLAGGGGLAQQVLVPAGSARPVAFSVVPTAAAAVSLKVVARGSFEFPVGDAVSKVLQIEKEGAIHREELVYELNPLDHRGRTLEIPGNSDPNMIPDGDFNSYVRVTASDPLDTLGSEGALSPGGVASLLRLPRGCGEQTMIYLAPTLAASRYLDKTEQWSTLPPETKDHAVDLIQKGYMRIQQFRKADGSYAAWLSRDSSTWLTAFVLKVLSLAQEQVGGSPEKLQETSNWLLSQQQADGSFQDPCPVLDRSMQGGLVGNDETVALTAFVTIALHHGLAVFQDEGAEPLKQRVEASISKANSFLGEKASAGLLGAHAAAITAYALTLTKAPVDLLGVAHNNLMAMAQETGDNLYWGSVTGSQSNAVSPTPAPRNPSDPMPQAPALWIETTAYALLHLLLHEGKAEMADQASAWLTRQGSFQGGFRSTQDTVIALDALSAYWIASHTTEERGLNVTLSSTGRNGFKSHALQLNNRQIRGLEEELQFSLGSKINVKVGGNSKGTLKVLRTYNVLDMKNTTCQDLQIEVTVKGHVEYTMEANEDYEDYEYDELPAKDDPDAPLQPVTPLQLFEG

[2] = biological target: soluble human C3b (human) (UniProt P01024)

Substance	C4b Screen Ref Fold (fold of CFI-HSA wild type) [1]	iC3b Screen Ref Fold (fold of CFI-HSA wild type) [2]	C4b Screen Ref Fold (fold of reference) [1]	iC3b Screen Ref Fold (fold of reference) [2]
CFI-HSA variant W381A (enzyme)	–	–	0.09	-0.01
CFI-HSA variant K340G; I345G (enzyme)	–	–	0.14	0
CFI-HSA variant K419G (enzyme)	0.21	0.78	–	–
CFI-HSA variant I322T (enzyme)	–	–	0.03	0.01
CFI-HSA K534H (enzyme)	1.9	1.79	–	–
CFI-HSA variant N531E (enzyme)	–	–	3.96	0.82
CFI-HSA variant H383G (enzyme)	-0.02	0.02	–	–
CFI-HSA variant G406D; P535A (enzyme)	–	–	0.95	0.13
CFI-HSA E457G; S507A (enzyme)	0.01	-0.01	–	–
CFI-HSA T407G; Y408L; E457G (enzyme)	0.12	0.74	–	–
CFI-HSA Y408L; E530R; N531G (enzyme)	4.67	1.09	–	–
CFI-HSA K534L (enzyme)	3.12	0.87	–	–
CFI-HSA T346R; Y408L; K504E; E530R; N531G (enzyme)	0.1	0.67	–	–
CFI-HSA variant E461D (enzyme)	–	–	0.12	0.12
CFI-HSA variant W375G (enzyme)	0.08	-0.03	–	–
CFI-HSA variant W381A; ΔP384 (enzyme)	–	–	-0.05	0.01
CFI-HSA P535M (enzyme)	0.68	0.6	–	–
CFI-HSA variant R557A; S507A (enzyme)	0.08	-0.02	–	–
CFI-HSA variant E461A (enzyme)	–	–	1.44	1.37
CFI-HSA Y408L; E457G; F464Y (enzyme)	5.57	1.13	–	–
CFI-HSA variant E530Y; P558S (enzyme)	0.43	1.62	–	–

Substance	C4b Screen Ref Fold (fold of CFI-HSA wild type) [1]	iC3b Screen Ref Fold (fold of CFI-HSA wild type) [2]	C4b Screen Ref Fold (fold of reference) [1]	iC3b Screen Ref Fold (fold of reference) [2]
CFI-HSA variant N422K; E457G; E461Q; N531G (enzyme)	3.52	2.02	–	–
CFI-HSA K504E; Y408L; N531G (enzyme)	3.27	0.15	–	–
CFI-HSA D506F (enzyme)	0.35	-0.03	–	–
CFI-HSA variant R557A; N531M; Y403F; K504Y; E457N; E461L (enzyme)	2.29	0.28	–	–
CFI-HSA L307S (enzyme)	2.94	1.54	–	–
CFI-HSA D425Y (enzyme)	2.87	1.15	–	–
CFI-HSA variant Q409Y (enzyme)	–	–	0.29	-0.01
CFI-HSA variant T346K (enzyme)	–	–	0.57	0.96
CFI-HSA variant E530F; K504R (enzyme)	0.05	1.14	–	–
CFI-HSA D506K (enzyme)	0.3	0.03	–	–
CFI-HSA D425I (enzyme)	1.38	1.86	–	–
CFI-HSA Y408L; E457G; R462K (enzyme)	5.24	1.02	–	–
CFI-HSA D425Q (enzyme)	1.83	1.87	–	–
CFI-HSA variant W381G; P384G; V390G (enzyme)	–	–	0.12	-0.02
CFI-HSA variant T346H (enzyme)	–	–	1.81	0.67
CFI-HSA variant G469L; R456N; K458A (enzyme)	–	–	-0.07	0
CFI-HSA variant D425K; E457G; E461Q; N531G; P558S (enzyme)	3.25	1.98	–	–
CFI-HSA variant E530F; F537K (enzyme)	0	0.03	–	–
CFI-HSA E457G; E461Q; F464Y (enzyme)	6.56	1.25	–	–
CFI-HSA variant T377G; S507A (enzyme)	0.05	-0.01	–	–

Results, then the substance that gave them:

C4b Screen Ref Fold (fold of CFI-HSA wild type) [1]	iC3b Screen Ref Fold (fold of CFI-HSA wild type) [2]	C4b Screen Ref Fold (fold of reference) [1]	iC3b Screen Ref Fold (fold of reference) [2]	Substance
5.72	1.19	–	–	CFI-HSA Y408L; N531G; R462K; F464Y (enzyme)
0.89	1.59	–	–	CFI-HSA D425W (enzyme)
0.12	0.01	–	–	CFI-HSA E457G; S507A; GGSSGG (SEQ ID NO: 6); CCP_1-4 (enzyme)
0.4	0.17	–	–	CFI-HSA P535T (enzyme)
3.31	0.4	–	–	CFI-HSA variant R557A; N531M; Y403F; K504Y; E457G; E461T (enzyme)
-0.01	-0.04	–	–	CFI-HSA variant E461Q; S507A (enzyme)
–	–	-0.08	0.13	CFI-HSA variant A405S; G406R; Y408L; Q409D (enzyme)
3.17	0.46	–	–	CFI-HSA variant R557A; N531M; Y403F; K504Y; E457G; E461V (enzyme)
0.11	0.59	–	–	CFI-HSA T407G (enzyme)
0.19	0.3	–	–	CFI-HSA P535F (enzyme)
5.93	1	–	–	CFI-HSA Y408L; N531G; F464Y (enzyme)
–	–	0.8	0.67	CFI-HSA variant E461W (enzyme)
–	–	0.26	-0.01	CFI-HSA variant W381G; P384A; V390G (enzyme)
–	–	2.38	0.99	CFI-HSA variant E461Y (enzyme)
0.62	0.65	–	–	CFI-HSA P535I (enzyme)
0.26	0	–	–	CFI-HSA H362T; V463S; R456I; D459W; S343R (enzyme)
0.16	-0.02	–	–	CFI-HSA D506I (enzyme)
–	–	0.4	1.21	CFI-HSA variant P558G (enzyme)
3.36	0.88	–	–	CFI-HSA K534N (enzyme)
–	–	0.04	0	CFI-HSA variant G469L (enzyme)
1.24	0.77	–	–	CFI-HSA P535R (enzyme)
-0.07	-0.03	–	–	CFI-HSA variant N531G; S507A (enzyme)
2.29	0.72	–	–	CFI-HSA K534D (enzyme)
1.24	0.37	–	–	CFI-HSA P535Q (enzyme)
-0.02	0	–	–	CFI-HSA D506S (enzyme)
0.04	-0.01	–	–	CFI-HSA Y408L; N531G; E457G; E461Q; R462K; F464Y; S507A (enzyme)
0.12	-0.01	–	–	CFI-HSA Y408L; E457G; S507A; N531G (enzyme)
